{"source": "paper PMC4244111", "about": "“Structure of Putrescine Aminotransferase from Escherichia coli Provides Insights into the Substrate Specificity among Class III Aminotransferases” (PLoS ONE, 2014)", "proteins": {"B1": {"name": "YgjG putrescine aminotransferase from Escherichia coli (enzyme, UniProt P42588 1-459, looked up)", "chain": "MNRLPSSASALACSAHALNLIEKRTLDHEEMKALNREVIEYFKEHVNPGFLEYRKSVTAGGDYGAVEWQAGSLNTLVDTQGQEFIDCLGGFGIFNVGHRNPVVVSAVQNQLAKQPLHSQELLDPLRAMLAKTLAALTPGKLKYSFFCNSGTESVEAALKLAKAYQSPRGKFTFIATSGAFHGKSLGALSATAKSTFRKPFMPLLPGFRHVPFGNIEAMRTALNECKKTGDDVAAVILEPIQGEGGVILPPPGYLTAVRKLCDEFGALMILDEVQTGMGRTGKMFACEHENVQPDILCLAKALGGGVMPIGATIATEEVFSVLFDNPFLHTTTFGGNPLACAAALATINVLLEQNLPAQAEQKGDMLLDGFRQLAREYPDLVQEARGKGMLMAIEFVDNEIGYNFASEMFRQRVLVAGTLNNAKTIRIEPPLTLTIEQCELVIKAARKALAAMRVSVEEA", "modifications": "PLP covalently linked to Lys300 via a Schiff base linkage (free enzyme)", "notes": "YgjG putrescine aminotransferase (EC 2.6.1.82), Escherichia coli; The seven N-terminal and one C-terminal residues and the His tag are not visible in the electron density; also called PATase; source: E. coli B834(DE3), purified (Ni-NTA, ion-exchange chromatography, size-exclusion chromatography); not shown: His6, C-terminal, kept"}}, "target": "the molecule itself", "test": "crystal structure; crystals by hanging-drop vapour diffusion at 22°C (15% PEG 3350, 0.2 M sodium formate, 0.1 M HEPES pH 7.5); free enzyme at 2.3 Å and putrescine-soaked at 2.1 Å; four molecules in the asymmetric unit; dimer interface analysed with PISA"}
{"protein": "B1", "values": [{"measurement": "stoichiometry N", "value": 2}]}
